Assay results from the supplement of paper PMC9732359.
± gives the uncertainty stated by the source.

Experiment: protein stability index of a GFP-peptide fusion (yeast GPS) (PSI 1-4); higher = more stable; sorted into four equal gates, so the index is relative within each strain
Summary of the method: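 Plasmids isolated from each sorting gate were PCR-amplified and Illumina-sequenced, and barcodes assigned the reads to strains. The gates, four of equal size, were set by GFP/Cherry fluorescence ratio on mid-log cultures in leucine-free medium. These cultures were yeast carrying a pooled library of tiled 17-residue yeast protein peptides fused downstream of GFP on a plasmid that also expresses Cherry. The protein stability index is the sum of every gate's read frequency times its gate number.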

Row | Sequence | protein stability index (doa10∆) | protein stability index (pdr5∆) | protein stability index (san1∆) | protein stability index (ubr1∆)
1 | ELAKEAKKSTTISKEST [ESC2] | 2.55 ± 0.13 | 2.47 ± 0.14 | 2.63 ± 0.21 | 2.85 ± 0.063
2 | SFQKNSLHNTEKIMENK [AAR2] | 3.08 ± 0.057 | 3.22 ± 0.066 | 2.93 ± 0.042 | 2.96 ± 0.049
3 | LEDDSLLSYPIKLDRWL [RPN12] | 3.12 ± 0.072 | 2.87 ± 0.057 | 2.99 ± 0.072 | 2.78 ± 0.063
4 | LIIVTRKNYMHVKNFGF [YML031W/NDC1] | 1.22 ± 0.042 | 1.52 ± 0.048 | 1.51 ± 0.1 | 1.87 ± 0.04
5 | YLGTKVELPYGAHGYSG [PRE1] | 2.77 ± 0.18 | 2.38 ± 0.11 | 2.5 ± 0.1 | 2.96 ± 0.086
6 | SINISCVQLIKCLVEKS [SWI1] | 1.78 ± 0.067 | 2.41 ± 0.055 | 2.27 ± 0.1 | 1.81 ± 0.045
7 | VNRQSPLFFVDLKLLFN [RGR1] | 1.53 ± 0.065 | 1.54 ± 0.074 | 1.29 ± 0.13 | 1.23 ± 0.11
8 | PMYKELWINYIKELLNI [POP4] | 1.67 ± 0.19 | 1.08 ± 0.11 | – | –
9 | HYLVNLTSPAFGPHVDV [GRR1] | 2.27 ± 0.14 | 2.87 ± 0.12 | 2.16 ± 0.25 | 3.42 ± 0.28
10 | PKYRDNLATWYHSAGGR [SSN3] | 2.95 ± 0.066 | 3.28 ± 0.08 | 3.1 ± 0.059 | 2.99 ± 0.059
11 | SIRRQDYINELSNSNRF [REC8] | 2.82 ± 0.17 | 3.21 ± 0.12 | 3.4 ± 0.092 | 3.2 ± 0.12
12 | LSLTAVPSFLRPDITMY [GRR1] | 2.17 ± 0.043 | 2.34 ± 0.045 | 2.18 ± 0.051 | 2.33 ± 0.043
13 | KDIFRYMQRTVEEAHDF [RPB2] | 2.24 ± 0.075 | 1.45 ± 0.046 | 1.91 ± 0.12 | 1.3 ± 0.045
14 | YRLDIIESALKSKLDQD [RPN2] | 1.66 ± 0.093 | 1.96 ± 0.12 | 1.99 ± 0.16 | 1.94 ± 0.19
15 | NSQLVGKPHFSLLGGFD [PCI8] | 2.42 ± 0.087 | 2.33 ± 0.09 | 2.34 ± 0.18 | 2.54 ± 0.053
16 | IGSTSKRPIESGTSSDP [YIL149C/MLP2] | 3.23 ± 0.087 | 3.22 ± 0.1 | 3.17 ± 0.11 | 3.36 ± 0.064
17 | KVSSAEYYAKKRAFTKK [RPL16A] | 3 ± 0.098 | 3.32 ± 0.099 | 2.98 ± 0.092 | 3.36 ± 0.082
18 | SGHFSTDSRTGQSTILV [CDC53] | 2.83 ± 0.047 | 2.8 ± 0.052 | 3.05 ± 0.038 | 3.11 ± 0.042
19 | PGTITHGMFSSASVRAL [FAS1] | 2.53 ± 0.063 | 2.54 ± 0.064 | 2.53 ± 0.053 | 2.52 ± 0.037
20 | IDLDHKRFLILQGEVEN [SMC4] | 1.58 ± 0.073 | 2.09 ± 0.087 | 1.81 ± 0.09 | 2.46 ± 0.057

Row | Sequence | protein stability index (doa10∆) | protein stability index (pdr5∆) | protein stability index (san1∆) | protein stability index (ubr1∆)
21 | FIVVPDLLKNAPLFKKN [SMD3] | 2.07 ± 0.053 | 1.57 ± 0.042 | 1.66 ± 0.11 | 1.32 ± 0.035
22 | DRHIGCVYSGLIPDGRH [PRE10] | 3.18 ± 0.098 | 3.41 ± 0.088 | 3.1 ± 0.062 | 3.54 ± 0.12
23 | QFNATINPESREIVMPA [ITC1] | 1.87 ± 0.15 | 1.86 ± 0.17 | 1.7 ± 0.13 | 1.14 ± 0.19
24 | SKSKQSFTQGELNDLKW [YMR129W/POM152] | 3.02 ± 0.13 | 2.81 ± 0.13 | 3.08 ± 0.11 | 2.75 ± 0.092
25 | VQGAAPWDTSLEVGRRF [MCD1] | 3.48 ± 0.13 | 3.39 ± 0.13 | 3.28 ± 0.088 | 3.43 ± 0.16
26 | ISAPSMEDEILSLGMDF [BRN1] | 3.15 ± 0.057 | 3.23 ± 0.05 | 3.19 ± 0.05 | 3.12 ± 0.044
27 | KTIQINNEKVVQYLRSV [YML031W/NDC1] | 3.23 ± 0.17 | 3.24 ± 0.12 | – | –
28 | DQVVVRGIDTLQKKVAS [RPB3] | 2.39 ± 0.28 | 3.29 ± 0.19 | 2.68 ± 0.28 | –
29 | QSEHLEAVVDQDVQRTC [FAS1] | 3.47 ± 0.25 | 3.36 ± 0.14 | 3.49 ± 0.094 | 3.38 ± 0.095
30 | YSSYIYKVLKQTHPDTG [HTB1] | 2.58 ± 0.065 | 2.05 ± 0.051 | 1.7 ± 0.074 | 1.81 ± 0.045
31 | FASNKKINDESSIDKKS [YML103C/NUP188] | 2.5 ± 0.066 | 2.92 ± 0.073 | 2.64 ± 0.068 | 3.14 ± 0.067
32 | HVINVGKTWEKLVLAAR [RPS0A] | 3.41 ± 0.15 | 3.49 ± 0.21 | 3.39 ± 0.13 | 3.12 ± 0.098
33 | EKSPDPTIRSNAVLGLG [YCS4] | 2.38 ± 0.052 | 2.26 ± 0.054 | 2.3 ± 0.074 | 2.53 ± 0.043
34 | VQVSKAGGLPMDALTLM [RRP45] | 1.28 ± 0.12 | 1.23 ± 0.18 | 1.1 ± 0.2 | 1.08 ± 0.14
35 | LKNLLRSNFRVNLSQEA [SNU114] | 2.05 ± 0.093 | 2.26 ± 0.089 | 2.58 ± 0.11 | 2.58 ± 0.11
36 | HGLKQLRDSLADKIVDE [NUT2] | 3.11 ± 0.083 | 2.13 ± 0.077 | 1.52 ± 0.071 | 2.3 ± 0.055
37 | QLDEFKNKYLKDVLAQT [SWP82] | 2.52 ± 0.12 | 2.52 ± 0.15 | 2.4 ± 0.1 | 2.36 ± 0.057
38 | ISVARKIYDAFPQTAML [DIS3] | 2.41 ± 0.098 | 2.4 ± 0.072 | 2.61 ± 0.14 | 2.36 ± 0.089
39 | LIKQVPRLLGPQLSKAG [RPL1A] | 1.98 ± 0.068 | 1.73 ± 0.06 | 1.78 ± 0.081 | 1.6 ± 0.059
